Data on two substances can be found in article PMC4705653.

The target in test [1] is Sld3 (UniProt P53135). In words: anti-Mcm2 co-IP, Sld3 blot. Conditions: reference: wild-type mcm2; sites S164,S170.
For test [2], the target named is GST-Mcm10 (budding yeast) (UniProt P32354). Description: pull-down; 30 pmol GST-tagged protein on Glutathione Sepharose, varying concentrations of 32P-labelled PKA-tagged protein in solution; GST binding buffer (40 mM Tris–HCl pH 7.5, 100 mM NaCl, 0.1 mM EDTA, 10% glycerol, 0.1% Triton X-100, 1 mM DTT, 0.1 mg/ml BSA), 100 μl, 30°C, 10 min; SDS-PAGE and phosphorimaging; in some panels with 5 mM ATP or ATPγS, or with a third labelled protein (Mcm10, Sld3) added.
Chain of GST-Mcm10 (budding yeast) (P32354 whole entry): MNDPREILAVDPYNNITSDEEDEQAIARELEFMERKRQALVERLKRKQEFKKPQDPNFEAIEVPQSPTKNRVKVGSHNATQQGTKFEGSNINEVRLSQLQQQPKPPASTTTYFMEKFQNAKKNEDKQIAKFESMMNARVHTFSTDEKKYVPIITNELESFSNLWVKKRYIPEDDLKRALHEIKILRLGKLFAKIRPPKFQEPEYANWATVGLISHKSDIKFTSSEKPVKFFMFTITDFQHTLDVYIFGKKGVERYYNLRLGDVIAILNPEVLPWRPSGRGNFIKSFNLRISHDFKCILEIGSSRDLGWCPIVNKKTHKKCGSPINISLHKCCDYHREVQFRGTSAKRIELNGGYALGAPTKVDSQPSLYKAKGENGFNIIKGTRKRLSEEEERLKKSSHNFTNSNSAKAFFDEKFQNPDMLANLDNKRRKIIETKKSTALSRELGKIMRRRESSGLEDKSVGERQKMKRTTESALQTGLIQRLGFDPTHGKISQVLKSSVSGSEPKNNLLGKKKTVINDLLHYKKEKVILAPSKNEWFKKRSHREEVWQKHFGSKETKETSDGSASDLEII

Turning to “Mcm2 (from UniProt P29469) mcm2-2A (S164A S170A)”, in test [1], the “binding against the reference” value is “lost”.

Regarding “PKA-Mcm2–7 complex (radiolabeled, wild type), P29469 1-868; P24279 1-971; P30665 1-933; P29496 1-775; P53091 1-1017; P38132 1-845”, the signal relative to GST alone in test [2] was > 10 times.
